Laboratory results published in patent US7999069B2, “EphB receptor-binding peptides” (Sanford-Burnham Medical Research Institute, priority 2005, dated 2011).
Values belong to the molecule of their own block, whether it stands above or below them.

What was measured:
[1] = system: COS cells; details: 400 μM peptide; […] ephrin-B1 Fc
Procedure: Upon treatment with 1.5 μg/ml ephrin-B1 Fc, COS cells retract at the periphery, leaving behind spike-like protrusions. […] COS cells were plated onto glass coverslips and sixteen hours later were starved for three hours in DME with 0.5% fetal calf serum. The cells were then incubated for 20 min with 400 μM SNEW or control peptide in PBS, or an equal volume of PBS as a control, and then either left untreated or stimulated for 10 min with 1.5 μg/ml ephrinB1-Fc (R&D Systems, Inc.). […] Control peptide: RTVA.

[2] = system: EphB receptors; test: Peptide pull-down of endogenous EphB receptors from lysates; type: binding; details: peptide on streptavidin beads; mouse brain or cultured cell lysates
Procedure: The ability of the peptides to bind in a stable manner, which is important for both targeting and competitive inhibition, was tested in pull-down experiments. For peptide pull-down experiments, cells in 60 cm plates at 70% confluency or adult mouse brain tissue were solubilized in pull-down buffer (50 mM HEPES pH 7.5, 150 mM NaCl, 10% glycerol, 1% Triton-X100, 5 mM KCl and 1 mM EDTA). Three μg of biotinylated peptide were incubated for 45-90 min with 5 μl streptavidin agarose beads (Sigma), unbound peptide was washed away, and the beads were incubated with the cell lysates for 45-90 min. Proteins bound to the beads were separated by SDS-polyacrylamide gel electrophoresis and probed by immunoblotting with EphB1, EphB2, or EphB4 antibodies. The EphB1 antibody (Santa Cruz) was detected with a secondary anti-goat IgG peroxidase-conjugated antibody (BioRad Laboratories). The EphB2 and EphB4 antibodies were affinity-purified polyclonal antibodies to GST fusion proteins containing approximately 100 amino acids from the carboxy-terminal tails of the EphB2 or EphB4 receptors (Noren, N. K. et al. 2004 PNAS USA 101:5583-5588; Holash, J. A. & Pasquale, E. B. 1995 Devel Biol 172:683-693) and were detected with a secondary anti-rabbit IgG peroxidase-conjugated antibody (Amersham Biosciences). […]

[3] = biological target: T1, EphB4 (Homo sapiens, UniProt P54760); test: Peptide pull-down of EphB4 from MCF7 or transfected 293T cells; type: binding
T1 construct: MCF-7 human breast cancer cells, which endogenously express EphB4; endogenous in cells; host or cells: MCF7
T1 sequence (P54760 16-987): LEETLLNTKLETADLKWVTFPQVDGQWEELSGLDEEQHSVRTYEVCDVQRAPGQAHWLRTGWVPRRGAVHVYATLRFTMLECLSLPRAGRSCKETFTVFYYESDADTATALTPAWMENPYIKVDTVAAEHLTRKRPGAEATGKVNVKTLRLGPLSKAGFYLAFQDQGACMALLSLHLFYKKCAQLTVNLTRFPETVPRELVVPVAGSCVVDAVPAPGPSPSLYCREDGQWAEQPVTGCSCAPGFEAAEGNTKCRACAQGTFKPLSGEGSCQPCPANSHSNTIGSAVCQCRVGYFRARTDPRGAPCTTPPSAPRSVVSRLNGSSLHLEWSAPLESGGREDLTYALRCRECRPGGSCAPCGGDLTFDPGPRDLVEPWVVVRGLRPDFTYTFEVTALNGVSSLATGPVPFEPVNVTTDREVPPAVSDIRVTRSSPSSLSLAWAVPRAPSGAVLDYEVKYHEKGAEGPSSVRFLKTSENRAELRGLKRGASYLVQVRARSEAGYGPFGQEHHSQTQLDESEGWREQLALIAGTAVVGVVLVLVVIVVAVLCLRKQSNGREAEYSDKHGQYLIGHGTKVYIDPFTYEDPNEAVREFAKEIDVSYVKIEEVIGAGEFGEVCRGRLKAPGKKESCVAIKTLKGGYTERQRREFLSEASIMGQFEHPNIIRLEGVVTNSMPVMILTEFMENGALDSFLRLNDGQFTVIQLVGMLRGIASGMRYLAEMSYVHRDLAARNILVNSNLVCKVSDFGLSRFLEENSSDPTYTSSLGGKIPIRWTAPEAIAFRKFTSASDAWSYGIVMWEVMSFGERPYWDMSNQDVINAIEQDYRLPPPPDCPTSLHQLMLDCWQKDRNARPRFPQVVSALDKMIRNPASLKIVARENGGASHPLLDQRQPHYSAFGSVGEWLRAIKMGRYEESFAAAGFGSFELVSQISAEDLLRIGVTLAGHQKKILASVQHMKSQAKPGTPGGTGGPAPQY
Procedure: The ability of the peptides to bind in a stable manner, which is important for both targeting and competitive inhibition, was tested in pull-down experiments. For peptide pull-down experiments, cells in 60 cm plates at 70% confluency or adult mouse brain tissue were solubilized in pull-down buffer (50 mM HEPES pH 7.5, 150 mM NaCl, 10% glycerol, 1% Triton-X100, 5 mM KCl and 1 mM EDTA). Three μg of biotinylated peptide were incubated for 45-90 min with 5 μl streptavidin agarose beads (Sigma), unbound peptide was washed away, and the beads were incubated with the cell lysates for 45-90 min. Proteins bound to the beads were separated by SDS-polyacrylamide gel electrophoresis and probed by immunoblotting with EphB1, EphB2, or EphB4 antibodies. The EphB1 antibody (Santa Cruz) was detected with a secondary anti-goat IgG peroxidase-conjugated antibody (BioRad Laboratories). The EphB2 and EphB4 antibodies were affinity-purified polyclonal antibodies to GST fusion proteins containing approximately 100 amino acids from the carboxy-terminal tails of the EphB2 or EphB4 receptors (Noren, N. K. et al. 2004 PNAS USA 101:5583-5588; Holash, J. A. & Pasquale, E. B. 1995 Devel Biol 172:683-693) and were detected with a secondary anti-rabbit IgG peroxidase-conjugated antibody (Amersham Biosciences).
Endogenous EphB receptors were isolated from lysates of mouse brain or cultured cells using the EWLS, SNEW, and TNYL peptides immobilized on streptavidin beads (FIGS. 5B, F, G and H). […] RTVA was used as a control peptide for the EphB4 pull downs. The NPVI peptide could isolate EphB4 from transfected cells but not endogenous EphB4 from MCF7 cells, which is present at lower levels (FIGS. 5B, F, G and H). […] EphB receptors were not detected bound to the beads coated with the other peptides.

[4] = biological target: T2, EphB4 (Homo sapiens, UniProt P54760); test: Peptide competition of phage binding to EphB4 ectodomain; details: concentration-dependent
T2 construct: panned on the ectodomains of EphB1, EphB2, or EphB4 fused to human Fc
T2 sequence (P54760 16-539 limits assumed): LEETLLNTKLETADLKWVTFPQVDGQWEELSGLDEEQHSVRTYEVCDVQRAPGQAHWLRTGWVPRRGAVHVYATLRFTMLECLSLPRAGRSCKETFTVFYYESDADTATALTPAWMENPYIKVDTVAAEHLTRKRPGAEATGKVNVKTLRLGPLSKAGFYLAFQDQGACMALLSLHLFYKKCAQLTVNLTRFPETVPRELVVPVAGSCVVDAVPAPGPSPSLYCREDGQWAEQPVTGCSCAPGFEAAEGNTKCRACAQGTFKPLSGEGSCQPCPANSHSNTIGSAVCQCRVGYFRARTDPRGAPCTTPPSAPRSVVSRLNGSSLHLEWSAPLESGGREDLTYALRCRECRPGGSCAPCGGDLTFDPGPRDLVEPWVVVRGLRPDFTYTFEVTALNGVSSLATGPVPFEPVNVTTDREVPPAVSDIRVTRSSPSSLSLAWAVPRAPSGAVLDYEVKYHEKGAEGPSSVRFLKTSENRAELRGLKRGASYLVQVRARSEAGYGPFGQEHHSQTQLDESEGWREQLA
Procedure: To measure peptide competition of phage binding to EphB receptors, Ni-NTA wells coated with Eph ectodomain Fc were incubated for 30 min at room temperature with various peptide concentrations in binding buffer (100 μl/well). Concentrated stocks of phage clones diluted between 1:500 and 1:10,000 in binding buffer were then added to the wells for a 1 hr at room temperature. Wells were washed and bound phage were detected using the anti-M13 antibody. A biotinylated control peptide with sequence unrelated to the sequences of the Eph-binding peptides ([…], SEQ ID NO: 40) was used as a negative control in some of the experiments, as indicated in the figure legends.
[…]. The SNEW peptide at 25 μM inhibited EphB2 binding of most phage clones isolated by panning on EphB2 (FIGS. 2E and G). The only exceptions were the IHWP, DHRWV and WHWT clones. However, binding of these clones was inhibited by 50 μM SNEW peptide, particularly when the phage concentration was halved. […] Bound phage were detected using anti-M13 phage antibody coupled to HRP and phage binding in the presence of peptide was normalized to phage binding in the absence of peptide. Error bars indicate standard deviation from duplicate measurements, and were calculated taking into account propagation of errors.

[5] = biological target: T3, EphA3 (Homo sapiens, UniProt P29320); details: read-out: KD for monovalent EphA3-ephrin-A5 interaction; cited from earlier work
T3 sequence (P29320 21-983): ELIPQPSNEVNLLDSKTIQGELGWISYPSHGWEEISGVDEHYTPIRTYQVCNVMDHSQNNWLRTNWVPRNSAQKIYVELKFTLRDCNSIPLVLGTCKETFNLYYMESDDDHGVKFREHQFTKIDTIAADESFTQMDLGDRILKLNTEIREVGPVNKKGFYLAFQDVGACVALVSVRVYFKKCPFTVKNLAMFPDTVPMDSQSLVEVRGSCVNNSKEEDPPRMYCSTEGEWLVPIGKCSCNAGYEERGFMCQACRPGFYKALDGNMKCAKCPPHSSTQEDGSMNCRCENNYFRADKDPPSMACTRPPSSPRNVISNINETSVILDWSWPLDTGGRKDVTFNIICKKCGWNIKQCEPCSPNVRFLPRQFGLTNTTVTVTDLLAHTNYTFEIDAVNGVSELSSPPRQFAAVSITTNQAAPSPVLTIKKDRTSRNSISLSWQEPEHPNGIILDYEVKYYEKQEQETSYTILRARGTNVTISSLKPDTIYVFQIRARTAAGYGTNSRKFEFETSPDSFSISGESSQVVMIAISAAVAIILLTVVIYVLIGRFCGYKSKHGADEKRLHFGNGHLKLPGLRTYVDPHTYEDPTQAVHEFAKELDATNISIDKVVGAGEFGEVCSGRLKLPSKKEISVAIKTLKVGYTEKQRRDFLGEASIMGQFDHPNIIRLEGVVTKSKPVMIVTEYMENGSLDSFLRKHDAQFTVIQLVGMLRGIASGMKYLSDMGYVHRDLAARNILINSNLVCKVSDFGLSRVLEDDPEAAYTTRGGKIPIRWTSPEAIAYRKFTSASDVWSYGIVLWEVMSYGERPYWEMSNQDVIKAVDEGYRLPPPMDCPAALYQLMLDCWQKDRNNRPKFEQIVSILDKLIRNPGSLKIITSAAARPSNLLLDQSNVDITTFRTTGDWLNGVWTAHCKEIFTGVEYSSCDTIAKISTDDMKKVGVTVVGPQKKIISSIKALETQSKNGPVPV

[6] = biological target: T4, EphB2 (Homo sapiens, UniProt P29323); details: read-out: KD for monovalent EphB2-ephrin-B2 interaction; cited from earlier work
T4 sequence (P29323 19-1055): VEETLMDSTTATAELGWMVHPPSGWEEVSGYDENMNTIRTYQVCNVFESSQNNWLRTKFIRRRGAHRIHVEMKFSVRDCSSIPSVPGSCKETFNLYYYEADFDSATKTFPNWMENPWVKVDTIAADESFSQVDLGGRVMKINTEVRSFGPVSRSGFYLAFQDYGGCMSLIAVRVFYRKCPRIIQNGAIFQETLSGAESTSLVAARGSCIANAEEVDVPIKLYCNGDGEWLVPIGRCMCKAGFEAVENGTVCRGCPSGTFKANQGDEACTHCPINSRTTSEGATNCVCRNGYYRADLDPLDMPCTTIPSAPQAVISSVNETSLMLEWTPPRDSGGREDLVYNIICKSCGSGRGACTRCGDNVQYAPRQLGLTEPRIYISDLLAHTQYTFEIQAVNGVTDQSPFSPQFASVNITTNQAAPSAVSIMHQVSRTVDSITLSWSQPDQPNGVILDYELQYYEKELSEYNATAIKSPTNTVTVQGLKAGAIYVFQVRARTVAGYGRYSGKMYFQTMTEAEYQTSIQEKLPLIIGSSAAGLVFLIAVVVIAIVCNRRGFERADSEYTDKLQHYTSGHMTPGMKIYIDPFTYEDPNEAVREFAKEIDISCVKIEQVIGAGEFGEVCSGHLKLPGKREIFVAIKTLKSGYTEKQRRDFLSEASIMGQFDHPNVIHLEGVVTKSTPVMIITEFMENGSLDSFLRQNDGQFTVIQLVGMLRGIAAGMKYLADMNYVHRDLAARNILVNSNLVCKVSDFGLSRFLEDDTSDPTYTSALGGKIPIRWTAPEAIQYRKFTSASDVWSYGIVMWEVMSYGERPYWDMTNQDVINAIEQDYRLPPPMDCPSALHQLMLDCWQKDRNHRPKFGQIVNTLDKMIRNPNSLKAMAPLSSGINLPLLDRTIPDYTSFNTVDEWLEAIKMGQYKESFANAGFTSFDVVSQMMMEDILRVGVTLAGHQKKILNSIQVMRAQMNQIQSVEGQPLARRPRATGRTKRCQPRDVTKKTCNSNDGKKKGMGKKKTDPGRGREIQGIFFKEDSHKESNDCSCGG

Molecule: CC[C@H](C)[C@H](NC(=O)[C@H](Cc1c[nH]c2ccccc12)NC(=O)[C@H](CCC(=O)O)NC(=O)[C@H](CC(N)=O)NC(=O)[C@@H](N)CO)C(=O)N[C@@H](CCC(N)=O)C(=O)N1CCC[C@H]1C(=O)N[C@@H](CCCNC(=N)N)C(=O)N[C@@H](CC(C)C)C(=O)N1CCC[C@H]1C(=O)N[C@@H](CCC(N)=O)C(=O)N[C@@H](Cc1c[nH]cn1)C(=O)O [SEQ ID NO 18]
Inhibition of COS cell retraction phenotype [1]: inhibited the COS cell retraction phenotype | Stable binding of EphB receptors in pull-down [2]: stably bind EphB receptors

Pull-down of EphB4, peptides used alone or together [3]: ineffective | Inhibition of DALN phage binding to immobilized EphB4 ectodomain [4]: inhibited binding of DALN phage
Molecule: SEQ ID NO 20: 12-mer from EphB4 panning; printed DAL[image]D[image]L[image]FRPW (DALNDWLLFRPW)

B1: ephrin-A5: ephrin ligand; monovalent interaction with EphA3, literature KD (protein, UniProt P52803 21-203, looked up)
Ephrin-A5: QDPGSKAVADRYAVYWNSSNPRFQRGDYHIDVCINDYLDVFCPHYEDSVPEDKTERYVLYMVNFDGYSACDHTSKGFKRWECNRPHSPNGPLKFSEKFQLFTPFSLGFEFRPGREYFYISSAIPDNGRRSCLKLKVFVRPTNSCMKTIGVHDRVFDVNDKVENSLEPADDTVHESAEPSRGEN
Kd [5]: 10 to 12 nM

B2: ephrin-B2: ephrin ligand; monovalent interaction with EphB2, literature KD (protein, UniProt P52799 28-333, looked up)
Ephrin-B2: IVLEPIYWNSSNSKFLPGQGLVLYPQIGDKLDIICPKVDSKTVGQYEYYKVYMVDKDQADRCTIKKENTPLLNCAKPDQDIKFTIKFQEFSPNLWGLEFQKNKDYYIISTSNGSLEGLDNQEGGVCQTRAMKILMKVGQDASSAGSTRNKDPTRRPELEAGTNGRSSTTSPFVKPNPGSSTDGNSAGHSGNNILGSEVALFAGIASGCIIFIVIIITLVVLLLKYRRRHRKHSPQHTTTLSLSTLATPKRSGNNNGSEPSDIIIPLRTADSVFCPHYEKVSGDYGHPVYIVQEMPPQSPANIYYKV
Kd [6]: 16 nM
